Source: patent US20160272683A1 (Novo Nordisk, published 2016)
Numbered stars: 1 amine (or outer) side, 2 acyl side, 3 side chain; on linkers, the order of the positions; unused ones are H or OH. * marks the point of attachment. C20 diacid = O=C(O)CCCCCCCCCCCCCCCCCCC(=O)*; C18 diacid = O=C(O)CCCCCCCCCCCCCCCCC(=O)*; γGlu = O=C(O)[C@H](CCC(=O)[*:2])N[*:1]; AEEA = NCCOCCOCC(=O)O

T1: human amylin receptor (amylin 3(a) receptor: human calcitonin receptor with RAMP-3) (human, UniProt P30988 25-474; O60896 24-148, limits assumed)
T1 construct: whole, on cells; Assay V: membranes of the Amylin 3(a)/CRE-luc BHK cells on SPA beads; also called hAmylin-R
T1 sequence (looked up) 1: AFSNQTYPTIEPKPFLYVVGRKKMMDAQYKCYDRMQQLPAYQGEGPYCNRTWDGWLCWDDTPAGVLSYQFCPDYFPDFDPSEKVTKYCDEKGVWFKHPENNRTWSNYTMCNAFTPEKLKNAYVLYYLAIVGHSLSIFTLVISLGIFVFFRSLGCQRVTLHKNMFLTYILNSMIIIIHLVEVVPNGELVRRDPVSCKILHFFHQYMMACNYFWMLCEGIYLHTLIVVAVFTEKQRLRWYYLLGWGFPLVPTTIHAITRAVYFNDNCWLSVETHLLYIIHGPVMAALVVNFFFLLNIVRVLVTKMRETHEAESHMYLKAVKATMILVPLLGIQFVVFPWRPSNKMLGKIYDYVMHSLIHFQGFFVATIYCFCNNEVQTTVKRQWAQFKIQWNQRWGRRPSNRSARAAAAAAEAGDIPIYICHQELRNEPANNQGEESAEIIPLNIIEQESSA
T1 sequence (looked up) 2: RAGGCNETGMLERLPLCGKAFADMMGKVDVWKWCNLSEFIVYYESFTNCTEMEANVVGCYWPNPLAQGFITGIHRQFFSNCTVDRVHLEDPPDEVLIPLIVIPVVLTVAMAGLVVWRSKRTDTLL

T2: human calcitonin receptor (human, UniProt P30988 25-474)
T2 construct: whole, on cells; Assay VII: membranes on SPA beads; also called hCT-R; hCTR
T2 sequence (looked up): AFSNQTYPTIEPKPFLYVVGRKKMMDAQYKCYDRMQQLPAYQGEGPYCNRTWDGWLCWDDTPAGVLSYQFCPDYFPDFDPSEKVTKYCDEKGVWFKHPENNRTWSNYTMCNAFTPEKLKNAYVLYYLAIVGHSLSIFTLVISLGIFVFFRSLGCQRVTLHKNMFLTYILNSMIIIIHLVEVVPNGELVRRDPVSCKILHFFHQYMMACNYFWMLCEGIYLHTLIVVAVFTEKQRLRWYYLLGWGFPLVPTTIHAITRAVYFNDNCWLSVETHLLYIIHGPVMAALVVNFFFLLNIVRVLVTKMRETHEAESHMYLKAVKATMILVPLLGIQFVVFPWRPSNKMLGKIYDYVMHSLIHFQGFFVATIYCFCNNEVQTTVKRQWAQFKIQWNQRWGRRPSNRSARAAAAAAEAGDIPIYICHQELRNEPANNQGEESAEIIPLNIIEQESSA


Columns and labels:
[1] = molecular target: T1, human amylin receptor (amylin 3(a) …); test: SPA competition vs 125I-rat amylin, membranes with human CTR + RAMP-3 (Assay V)
[2] = molecular target: T2, human calcitonin receptor; test: SPA competition vs 125I-calcitonin, membranes with human CTR (Assay VII)
Summary of the method: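 SPA competition on membranes from BHK tk'ts 13 cells stably expressing human calcitonin receptor plus CRE-luciferase reporter; membranes 35 ng/μL final with 0.05 mg/well beads.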

Binder | IC50 [1] | IC50 [2]
{C18 diacid-γGlu-AEEA-AEEA}-ASGLSTAVLGRLSQELHELQTYPRTETGSGTY-NH2 (SMILES CC(C)C[C@H](NC(=O)CNC(=O)[C@H](CO)NC(=O)[C@H](C)NC(=O)COCCOCCNC(=O)COCCOCCNC(=O)CC[C@H](NC(=O)CCCCCCCCCCCCCCCCC(=O)O)C(=O)O)C(=O)N[C@@H](CO)C(=O)N[C@H](C(=O)N[C@@H](C)C(=O)N[C@H](C(=O)N[C@@H](CC(C)C)C(=O)NCC(=O)N[C@@H](CCCNC(=N)N)C(=O)N[C@@H](CC(C)C)C(=O)N[C@@H](CO)C(=O)N[C@@H](CCC(N)=O)C(=O)N[C@@H](CCC(=O)O)C(=O)N[C@@H](CC(C)C)C(=O)N[C@@H](Cc1c[nH]cn1)C(=O)N[C@@H](CCC(=O)O)C(=O)N[C@@H](CC(C)C)C(=O)N[C@@H](CCC(N)=O)C(=O)N[C@H](C(=O)N[C@@H](Cc1ccc(O)cc1)C(=O)N1CCC[C@H]1C(=O)N[C@@H](CCCNC(=N)N)C(=O)N[C@H](C(=O)N[C@@H](CCC(=O)O)C(=O)N[C@H](C(=O)NCC(=O)N[C@@H](CO)C(=O)NCC(=O)N[C@H](C(=O)N[C@@H](Cc1ccc(O)cc1)C(N)=O)[C@@H](C)O)[C@@H](C)O)[C@@H](C)O)[C@@H](C)O)C(C)C)[C@@H](C)O, mimylin derivative; des1 = residue 1 deleted; also called Ex. #121; 121) [[N-terminal(C18 diacid-gGlu-2xOEG), des1, 4G, 9V, 15Q, 21Q, 23Y, 30S, 31G, 32T, 33Y]mimylin] | 0.371 nM | 0.12 nM
{C20 diacid-γGlu}-ASGLSTATLGRLSQELHELQTYPPTETGSGTY-NH2 (SMILES CC(C)C[C@H](NC(=O)CNC(=O)[C@H](CO)NC(=O)[C@H](C)NC(=O)CC[C@H](NC(=O)CCCCCCCCCCCCCCCCCCC(=O)O)C(=O)O)C(=O)N[C@@H](CO)C(=O)N[C@H](C(=O)N[C@@H](C)C(=O)N[C@H](C(=O)N[C@@H](CC(C)C)C(=O)NCC(=O)N[C@@H](CCCNC(=N)N)C(=O)N[C@@H](CC(C)C)C(=O)N[C@@H](CO)C(=O)N[C@@H](CCC(N)=O)C(=O)N[C@@H](CCC(=O)O)C(=O)N[C@@H](CC(C)C)C(=O)N[C@@H](Cc1c[nH]cn1)C(=O)N[C@@H](CCC(=O)O)C(=O)N[C@@H](CC(C)C)C(=O)N[C@@H](CCC(N)=O)C(=O)N[C@H](C(=O)N[C@@H](Cc1ccc(O)cc1)C(=O)N1CCC[C@H]1C(=O)N1CCC[C@H]1C(=O)N[C@H](C(=O)N[C@@H](CCC(=O)O)C(=O)N[C@H](C(=O)NCC(=O)N[C@@H](CO)C(=O)NCC(=O)N[C@H](C(=O)N[C@@H](Cc1ccc(O)cc1)C(N)=O)[C@@H](C)O)[C@@H](C)O)[C@@H](C)O)[C@@H](C)O)[C@@H](C)O)[C@@H](C)O, mimylin derivative; des1 = residue 1 deleted) [[N-terminal(C20 diacid-gGlu), des1, 4G, 9T, 15Q, 21Q, 23Y, 25P, 30S, 31G, 32T, 33Y]mimylin] | 0.216 nM | 0.053 nM
{C20 diacid-γGlu}-ASGLSTAVLGRLSQELHELQTYPRTETGSQTY-NH2 (SMILES CC(C)C[C@H](NC(=O)CNC(=O)[C@H](CO)NC(=O)[C@H](C)NC(=O)CC[C@H](NC(=O)CCCCCCCCCCCCCCCCCCC(=O)O)C(=O)O)C(=O)N[C@@H](CO)C(=O)N[C@H](C(=O)N[C@@H](C)C(=O)N[C@H](C(=O)N[C@@H](CC(C)C)C(=O)NCC(=O)N[C@@H](CCCNC(=N)N)C(=O)N[C@@H](CC(C)C)C(=O)N[C@@H](CO)C(=O)N[C@@H](CCC(N)=O)C(=O)N[C@@H](CCC(=O)O)C(=O)N[C@@H](CC(C)C)C(=O)N[C@@H](Cc1c[nH]cn1)C(=O)N[C@@H](CCC(=O)O)C(=O)N[C@@H](CC(C)C)C(=O)N[C@@H](CCC(N)=O)C(=O)N[C@H](C(=O)N[C@@H](Cc1ccc(O)cc1)C(=O)N1CCC[C@H]1C(=O)N[C@@H](CCCNC(=N)N)C(=O)N[C@H](C(=O)N[C@@H](CCC(=O)O)C(=O)N[C@H](C(=O)NCC(=O)N[C@@H](CO)C(=O)N[C@@H](CCC(N)=O)C(=O)N[C@H](C(=O)N[C@@H](Cc1ccc(O)cc1)C(N)=O)[C@@H](C)O)[C@@H](C)O)[C@@H](C)O)[C@@H](C)O)C(C)C)[C@@H](C)O, mimylin derivative; des1 = residue 1 deleted) [[N-terminal(C20 diacid-gGlu), des1, 4G, 9V, 15Q, 21Q, 23Y, 30S, 31Q, 32T, 33Y]mimylin] | 0.152 nM | 0.067 nM
{C20 diacid-γGlu}-ASGLSTAALGRLSQELHELQTYPHTETGSGTY-NH2 (SMILES CC(C)C[C@H](NC(=O)CNC(=O)[C@H](CO)NC(=O)[C@H](C)NC(=O)CC[C@H](NC(=O)CCCCCCCCCCCCCCCCCCC(=O)O)C(=O)O)C(=O)N[C@@H](CO)C(=O)N[C@H](C(=O)N[C@@H](C)C(=O)N[C@@H](C)C(=O)N[C@@H](CC(C)C)C(=O)NCC(=O)N[C@@H](CCCNC(=N)N)C(=O)N[C@@H](CC(C)C)C(=O)N[C@@H](CO)C(=O)N[C@@H](CCC(N)=O)C(=O)N[C@@H](CCC(=O)O)C(=O)N[C@@H](CC(C)C)C(=O)N[C@@H](Cc1c[nH]cn1)C(=O)N[C@@H](CCC(=O)O)C(=O)N[C@@H](CC(C)C)C(=O)N[C@@H](CCC(N)=O)C(=O)N[C@H](C(=O)N[C@@H](Cc1ccc(O)cc1)C(=O)N1CCC[C@H]1C(=O)N[C@@H](Cc1c[nH]cn1)C(=O)N[C@H](C(=O)N[C@@H](CCC(=O)O)C(=O)N[C@H](C(=O)NCC(=O)N[C@@H](CO)C(=O)NCC(=O)N[C@H](C(=O)N[C@@H](Cc1ccc(O)cc1)C(N)=O)[C@@H](C)O)[C@@H](C)O)[C@@H](C)O)[C@@H](C)O)[C@@H](C)O, mimylin derivative; des1 = residue 1 deleted) [[N-terminal(C20 diacid-gGlu), des1, 4G, 15Q, 21Q, 23Y, 25H, 30S, 31G, 32T, 33Y]mimylin] | 0.166 nM | 0.15 nM
